Source: patent US20250197501A1

What was measured:
[1] = biological target: human B7-H3 on the surface of human cancer cells (human) (UniProt Q5ZPR3); test: flow cytometry, HA59T cells
[2] = biological target: human B7-H3 on the surface of human cancer cells (human) (UniProt Q5ZPR3); test: flow cytometry, DU145 cells
[3] = biological target: human B7-H3 on the surface of human cancer cells (human) (UniProt Q5ZPR3); test: flow cytometry, HepG2 cells
[4] = biological target: human B7-H3 on the surface of human cancer cells (human) (UniProt Q5ZPR3); test: flow cytometry, CAL 27 cells
[5] = biological target: human B7-H3 on the surface of human cancer cells (human) (UniProt Q5ZPR3); test: flow cytometry, NCI-H520 cells
[6] = biological target: human B7-H3 on the surface of human cancer cells (human) (UniProt Q5ZPR3); test: flow cytometry, Detroit 562 cells
[7] = biological target: human B7-H3 on the surface of human cancer cells (human) (UniProt Q5ZPR3); test: flow cytometry, A549 cells
[8] = biological target: human B7-H3 on the surface of human cancer cells (human) (UniProt Q5ZPR3); test: flow cytometry, Huh7 cells
[9] = biological target: human B7-H3 on the surface of human cancer cells (human) (UniProt Q5ZPR3); test: flow cytometry, LNCaP cells
[10] = biological target: human B7-H3 on the surface of human cancer cells (human) (UniProt Q5ZPR3); test: flow cytometry, PC-3 cells
[11] = biological target: human B7-H3 on the surface of human cancer cells (human) (UniProt Q5ZPR3); test: flow cytometry, OECM-1 cells
[12] = biological target: human B7-H3 on the surface of human cancer cells (human) (UniProt Q5ZPR3); test: flow cytometry, H1299 cells

Chain of human B7-H3 on the surface of human cancer cells (human) (Q5ZPR3 29-534 limits assumed): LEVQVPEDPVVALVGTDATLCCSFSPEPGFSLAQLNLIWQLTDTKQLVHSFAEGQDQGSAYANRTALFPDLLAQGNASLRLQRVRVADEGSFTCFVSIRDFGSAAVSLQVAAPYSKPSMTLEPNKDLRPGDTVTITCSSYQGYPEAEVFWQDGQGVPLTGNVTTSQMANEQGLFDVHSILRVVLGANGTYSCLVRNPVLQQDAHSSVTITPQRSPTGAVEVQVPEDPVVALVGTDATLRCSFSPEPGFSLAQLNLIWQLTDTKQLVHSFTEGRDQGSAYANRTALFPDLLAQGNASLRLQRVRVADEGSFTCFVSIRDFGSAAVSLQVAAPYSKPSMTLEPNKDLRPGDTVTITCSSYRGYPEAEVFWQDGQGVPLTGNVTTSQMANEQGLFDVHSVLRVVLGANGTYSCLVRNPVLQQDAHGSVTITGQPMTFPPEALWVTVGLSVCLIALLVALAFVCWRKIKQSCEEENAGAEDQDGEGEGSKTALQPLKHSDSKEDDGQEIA

MFI value [1]: < 600 MFI | MFI value [2]: < 600 MFI | MFI value [3]: < 600 MFI | MFI value [4]: < 600 MFI | MFI value [5]: < 600 MFI | MFI value [6]: < 600 MFI | MFI value [7]: < 600 MFI | MFI value [8]: < 600 MFI | MFI value [9]: < 600 MFI | MFI value [10]: < 600 MFI | MFI value [11]: < 600 MFI | MFI value [12]: < 600 MFI
Substance: IgG (isotype control antibody)
